Experimental data: article PMC9352680, “A comprehensive thermodynamic model for RNA binding by the Saccharomyces cerevisiae Pumilio protein PUF4”
Residue numbers refer to the chain shown, from its start. In names and notes the source's numbering stands.

T1: PUF4 RNA-binding domain (Saccharomyces cerevisiae, UniProt P25339 537-888)
T1 sequence: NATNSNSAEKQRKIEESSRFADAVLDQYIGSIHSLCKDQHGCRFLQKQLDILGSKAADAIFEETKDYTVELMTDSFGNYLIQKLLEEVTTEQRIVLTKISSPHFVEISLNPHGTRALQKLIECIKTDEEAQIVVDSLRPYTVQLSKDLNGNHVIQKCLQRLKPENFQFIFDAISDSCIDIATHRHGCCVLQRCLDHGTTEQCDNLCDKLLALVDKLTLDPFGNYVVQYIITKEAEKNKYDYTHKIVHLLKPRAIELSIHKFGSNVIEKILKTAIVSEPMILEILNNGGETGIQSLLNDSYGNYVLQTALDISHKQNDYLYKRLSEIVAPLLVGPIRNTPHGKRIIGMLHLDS

B1: Ic_S2_P4E.1_K4.1_C4.1_H4.1_A4.1_[T5C]_F4.1_[T8C]_[A9G]_T4.1 (ssRNA)
RNA: UUUGAUUAAUAUGAUAUCGUUCUUUCUUGUACAUCGUUCUUUCUCGAUAUCAUAUUAAUCUUU
B2: Ic_S2_P4E.1_K4.1_C4.1_H4.1_A4.1_[T5C]_[T7C]_F4.1_[A9T]_T4.1 (ssRNA)
RNA: B1 RNA with U34C, C35U, G36U
B3: Ic_S2_P4E.1_K4.1_C4.1_H4.1_A4.1_[T5C]_[T7C]_F4.1_[T8C]_T4.1 (ssRNA)
RNA: B1 RNA with U34C, G36A
B4: Ic_S2_P4E.1_K4.1_C4.1_H4.1_A4.1_[T5C]_[A6T]_F4.1_[T8A]_[A9C]_T4.1 (ssRNA)
RNA: B1 RNA with A33U, C35A, G36C
B5: Ic_S2_P4E.1_K4.1_C4.1_H4.1_A4.1_[T5C]_[A6T]_F4.1_[T8G]_[A9C]_T4.1 (ssRNA)
RNA: B1 RNA with A33U, C35G, G36C
B6: Ic_S2_P4E.1_K4.1_C4.1_H4.1_A4.1_[T5C]_[A6T]_[T7A]_F4.1_[T8C]_T4.1 (ssRNA)
RNA: B1 RNA with A33U, U34A, G36A
B7: Ic_S2_P4E.1_K4.1_C4.1_H4.1_A4.1_[T5C]_[A6T]_F4.1_[A9T]_T4.1 (ssRNA)
RNA: B1 RNA with A33U, C35U, G36U
B8: Ic_S2_P4E.1_K4.1_C4.1_H4.1_A4.1_[T5C]_[A6T]_F4.1_[T8C]_T4.1 (ssRNA)
RNA: B1 RNA with A33U, G36A
B9: Ic_S2_P4E.1_K4.1_C4.1_H4.1_A4.1_[T5C]_[T7G]_F4.1_[A9T]_T4.1 (ssRNA)
RNA: B1 RNA with U34G, C35U, G36U
B10: Ic_S2_P4E.1_K4.1_C4.1_H4.1_A4.1_[T5C]_[A6T]_F4.1_[A9G]_T4.1 (ssRNA)
RNA: B1 RNA with A33U, C35U
B11: Ic_S2_P4E.1_K4.1_C4.1_H4.1_A4.1_[T5C]_[A6T]_[T7C]_F4.1_T4.1 (ssRNA)
RNA: B1 RNA with A33U, U34C, C35U, G36A
B12: Ic_S2_P4E.1_K4.1_C4.1_H4.1_A4.1_[T5A]_[A6C]_[T7G]_F4.1_[T8C]_T4.1 (ssRNA)
RNA: B1 RNA with C32A, A33C, U34G, G36A
B13: Ic_S2_P4E.1_K4.1_C4.1_H4.1_A4.1_[T5C]_[T7A]_F4.1_[T8C]_T4.1 (ssRNA)
RNA: B1 RNA with U34A, G36A
B14: Ic_S2_P4E.1_K4.1_C4.1_H4.1_A4.1_[T5A]_[A6C]_F4.1_[T8C]_T4.1 (ssRNA)
RNA: B1 RNA with C32A, A33C, G36A
B15: Ic_S2_P4E.1_K4.1_C4.1_H4.1_A4.1_[T5A]_[A6C]_[T7A]_F4.1_[T8G]_[A9C]_T4.1 (ssRNA)
RNA: B1 RNA with C32A, A33C, U34A, C35G, G36C
B16: Ic_S2_P4E.1_K4.1_C4.1_H4.1_A4.1_[T5C]_[A6T]_F4.1_[T8G]_[A9T]_T4.1 (ssRNA)
RNA: B1 RNA with A33U, C35G, G36U
B17: Ic_S2_P4E.1_K4.1_C4.1_H4.1_A4.1_[T5A]_[A6C]_[T7A]_F4.1_[A9C]_T4.1 (ssRNA)
RNA: B1 RNA with C32A, A33C, U34A, C35U, G36C
B18: Ic_S2_P4E.1_K4.1_C4.1_H4.1_A4.1_[T5C]_[A6T]_[T7A]_F4.1_[A9C]_T4.1 (ssRNA)
RNA: B1 RNA with A33U, U34A, C35U, G36C
B19: Ic_S2_P4E.1_K4.1_C4.1_H4.1_A4.1_[T5C]_[T7A]_F4.1_[A9G]_T4.1 (ssRNA)
RNA: B1 RNA with U34A, C35U
B20: Ic_S2_P4E.1_K4.1_C4.1_H4.1_A4.1_[T5A]_[A6C]_[T7G]_F4.1_[T8C]_[A9C]_T4.1 (ssRNA)
RNA: B1 RNA with C32A, A33C, U34G, G36C
B21: Ic_S2_P4E.1_K4.1_C4.1_H4.1_A4.1_[T5A]_[A6C]_[T7C]_F4.1_[T8A]_[A9C]_T4.1 (ssRNA)
RNA: B1 RNA with C32A, A33C, U34C, C35A, G36C
B22: Ic_S2_P4E.1_K4.1_C4.1_H4.1_A4.1_[T5A]_[A6C]_F4.1_[T8G]_[A9T]_T4.1 (ssRNA)
RNA: B1 RNA with C32A, A33C, C35G, G36U
B23: Ic_S2_P4E.1_K4.1_C4.1_H4.1_A4.1_[T5A]_[A6C]_[T7A]_F4.1_[T8A]_[A9T]_T4.1 (ssRNA)
RNA: B1 RNA with C32A, A33C, U34A, C35A, G36U
B24: Ic_S2_P4E.1_K4.1_C4.1_H4.1_A4.1_[T5C]_[A6T]_F4.1_[T8A]_[A9T]_T4.1 (ssRNA)
RNA: B1 RNA with A33U, C35A, G36U
B25: Ic_S2_P4E.1_K4.1_C4.1_H4.1_A4.1_[T5A]_[A6C]_[T7G]_F4.1_T4.1 (ssRNA)
RNA: B1 RNA with C32A, A33C, U34G, C35U, G36A

The binders below were run against T1, PUF4 RNA-binding domain (assay: Mg; RNA-MaP; 20 mM Na-HEPES pH 7.4, 30 mM KOAc, 0.75 mM MgCl2, 0.1% Tween-20, 5% glycerol, 0.1 mg/mL BSA, 2 mM DTT; 25 C; 0.0125-409.6 nM protein). Settings: tags: N-His6-TEV cleaved; C-SNAP kept, Cy3B-labelled; label: tethered on chip by stalled RNA polymerase.

First: B1
Second: B2
The Kd of the first is 7.6-fold higher: 22.3 nM for the first, 2.92 nM for the second.

Going from B3 to B4, the Kd rises from 14 nM to 85.2 nM (6.1-fold).

B5 and B6 are within 1.5-fold of each other in Kd: 365 nM for the first, 353 nM for the second.

Compared with B7, B8 is 5.5-fold higher in Kd: 9.78 nM for the first, 53.5 nM for the second.

B9 and B10 are within 1.5-fold of each other in Kd: 9.39 nM for the first, 13.1 nM for the second.

First: B11
Second: B12
The Kd of the first is 770-fold lower: 0.967 nM for the first, 747 nM for the second.

Compared with B13, B14 is 19-fold higher in Kd: 17.4 nM for the first, 324 nM for the second. The first binds more tightly here.

Going from B15 to B16, the Kd falls from 777 nM to 72.9 nM (11-fold).

First: B17
Second: B18
The Kd of the first is 1.7-fold higher: 16 nM for the first, 9.16 nM for the second. The second binds more tightly here.

First: B19
Second: B20
The Kd of the first is 120-fold lower: 7.25 nM for the first, 851 nM for the second.

Compared with B21, B22 is 26-fold lower in Kd: 1570 nM for the first, 61.3 nM for the second. The second binds more tightly here.

Going from B23 to B24, the Kd falls from 45.2 nM to 13.6 nM (3.3-fold). The second binds more tightly here.

Going from B25 to UCUCUUUGUACUUAUCUCUU (ssRNA) [Ic_S1_P3E.1_K3.1_C3.1_H3.1_A3.1_[T5C]_[A6T]_F3.1_T3.1], the Kd rises from 11 nM to 66.4 nM (6-fold).

Going from UCUCUUUGUUUUUAUCUCUU (ssRNA) [Ib_S1_P3E.1_K3.1_C3.1_H3.1_[A4T]_A3.1_[A6T]_F3.1_T3.1] to UCUCUUUGUACCUAUCUCUU (ssRNA) [Ib_S1_P3E.1_K3.1_C3.1_H3.1_A3.1_[T5C]_[A6C]_F3.1_T3.1], the Kd falls from 1670 nM to 86.7 nM (19-fold). The second binds more tightly here.

With UCUCUUUGUAGUUAUCUCUU (ssRNA) [Ib_S1_P3E.1_K3.1_C3.1_H3.1_A3.1_[T5G]_[A6T]_F3.1_T3.1] the Kd was 1020 nM.
